In experiment [1] the target is T1, CCL5_HUMAN (human), P13501.
T1 chain: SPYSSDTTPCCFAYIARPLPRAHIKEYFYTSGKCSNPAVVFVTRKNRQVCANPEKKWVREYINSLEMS
The experiment is described as follows: BLI. The note with it: other; chains chain; remark: other sources report otherwise.

Experiment [2] concerns the target T2, CX3CL1_HUMAN (human), P78423.
T2 chain: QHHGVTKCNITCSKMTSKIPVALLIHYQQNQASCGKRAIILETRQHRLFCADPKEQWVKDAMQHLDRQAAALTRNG
As to the kind of experiment: microscale thermophoresis, AlexaFluor 647 labelled chemokine. The note with it: remark: other sources report otherwise.

Experiment [3] addresses T3, CCL19_HUMAN (human), Q99731.
T3 chain: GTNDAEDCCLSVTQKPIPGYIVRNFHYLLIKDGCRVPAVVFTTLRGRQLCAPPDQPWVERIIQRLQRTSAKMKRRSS
The description is as above. The note with it: remark: other sources report otherwise.

The target of experiment [4] is CXCL10_HUMAN (human), P02778. The description is as above. The note with it: remark: other sources report otherwise.
The target of experiment [5] is CXCL8_HUMAN (human), P10145. Described as above. Particulars: remark: other sources report otherwise.
The target in experiment [6] is CCL20_HUMAN (human), P78556. Described as above. Particulars: remark: other sources report otherwise.
Experiment [7] has as its target T1, CCL5_HUMAN (human), P13501. Described as above. The note with it: remark: other sources report otherwise.
Experiment [8] concerns the target CXCL12_HUMAN (human), P48061. Described as above. Particulars: remark: other sources report otherwise.

Sequence of CXCL10_HUMAN (human), P02778 (P02778 22-98 limits assumed): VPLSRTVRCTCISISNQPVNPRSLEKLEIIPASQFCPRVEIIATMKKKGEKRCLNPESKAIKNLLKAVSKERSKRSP
Sequence of CXCL8_HUMAN (human), P10145 (P10145 28-99 limits assumed): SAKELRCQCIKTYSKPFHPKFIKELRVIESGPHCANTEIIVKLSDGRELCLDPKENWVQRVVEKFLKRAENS
Sequence of CCL20_HUMAN (human), P78556 (P78556 27-96 limits assumed): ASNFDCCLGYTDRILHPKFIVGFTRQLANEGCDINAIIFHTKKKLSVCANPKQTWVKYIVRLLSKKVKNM
Sequence of CXCL12_HUMAN (human), P48061 (P48061 22-89 limits assumed): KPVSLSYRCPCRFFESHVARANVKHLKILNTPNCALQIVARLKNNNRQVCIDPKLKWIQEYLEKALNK

B1: P974_AMBCA, A0A023FDY8 22-118 (protein)
chain: ENTQQEEQDYDYGTDTCPFPVLANKTNKAKFVGCHQKCNGGDQKLTDGTACYVVERKVWDRMTPMLWYECPLGECKNGVCEDLRKKEDCRKGNGEEK
In experiment [1], B1 yielded a dissociation constant Kd of 160 nM.

B2: P546_AMBCA, A0A023FBW7 22-118 (protein)
chain: ENTQQEEEDYDYGTDTCPFPVLANKTNKAKFVGCHQKCNGGDQKLTDGTACYVVERKVWDRMTPMLWYSCPLGECKNGVCEDLRKKEECRKGNGEEK
On to B2, for which the Kd in experiment [2] worked out at 140 nM; in experiment [3] it was 367 nM; in experiment [4], 104 nM; in experiment [5], 56 nM; in experiment [6], 232 nM; in experiment [7], 128 nM. In experiment [8], this molecule returned a Kd of 71 nM.

For the origin of these results see patent publication US20220175942A1.
